The values that follow come from patent CN115677859A (HEFEI HANKEMAB BIOTECHNOLOGY CO LTD; ANHUI ANKE …, dated 2023).

By EC50 is commonly meant the concentration giving half of the maximal effect.

Test [1] concerns the target T1, 人4-1BB全长, 表达于细胞 (CHO-K1/h4-1BB; HEK-293/NFκB-Luci/4-1BB) (human, UniProt Q07011 24-255).
T1 construct: also called 细胞表面人4-1BB抗原
The test is described as follows: flow cytometry on CHO-K1/h4-1BB cells.

For test [2], the target named is T2, 人4-1BB胞外段 (human 4-1BB extracellular domain, HEK293-expressed, Example 4) (human, UniProt Q07011 24-186).
T2 construct: also called 人4-1BB抗原; CD137
In words: ELISA, human 4-1BB ECD coated, anti-human IgG HRP.

The target in test [3] is T3, 人PD-L1全长, 表达于CHO-K1细胞 (CHO-K1/hPD-L1; CHO-K1/PDL1/TCR) (human, UniProt Q9NZQ7 19-290).
T3 construct: Full-length human PD-L1 transfected into CHO-K1 cells; also called 细胞表面人PD-L1抗原
T3 sequence (Q9NZQ7 19-290 limits assumed): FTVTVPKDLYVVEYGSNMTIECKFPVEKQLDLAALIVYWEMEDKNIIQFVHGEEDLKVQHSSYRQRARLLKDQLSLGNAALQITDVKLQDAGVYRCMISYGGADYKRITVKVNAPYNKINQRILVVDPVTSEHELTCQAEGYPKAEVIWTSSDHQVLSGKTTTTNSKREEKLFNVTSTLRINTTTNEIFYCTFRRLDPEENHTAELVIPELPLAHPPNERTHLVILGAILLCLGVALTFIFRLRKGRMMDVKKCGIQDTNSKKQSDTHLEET
The test is described as follows: flow cytometry on CHO-K1/hPD-L1 cells, anti-human FITC. (In flow cytometry, cells or beads pass a laser one at a time.)

Test [4] deals with T3, 人PD-L1全长, 表达于CHO-K1细胞 (CHO-K1/hPD-L1; …). The test is described as follows: flow cytometry on CHO-K1/hPD-L1 cells, 4-parameter logistic fit.
The target in test [5] is T4, 人4-1BB胞外段, 带鼠Fc标签 (human 4-1BB extracellular domain with mouse Fc tag, Example 5) (human, UniProt Q07011 24-186).
T4 construct: also called 抗原人4-1BB; not shown: mouse Fc tag
In words: bridging ELISA: PD-L1-His coated, bispecific, then 4-1BB-mouse Fc, anti-mouse HRP.

For test [6], the target named is T5, 猴4-1BB胞外段 (monkey 4-1BB extracellular domain) (monkey (猴), UniProt Q07011 24-186 (human entry)).
T5 construct: also called 猴4-1BB抗原
T5 chain: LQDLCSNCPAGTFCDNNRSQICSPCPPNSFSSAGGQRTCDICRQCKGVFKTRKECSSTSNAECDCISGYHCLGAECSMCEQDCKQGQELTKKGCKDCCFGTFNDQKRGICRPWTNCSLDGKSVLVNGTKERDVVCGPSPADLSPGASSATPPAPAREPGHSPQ
In words: ELISA, monkey 4-1BB ECD coated, anti-human HRP.

In test [7] the target is T6, 猴PD-L1胞外段 (monkey PD-L1 extracellular domain) (monkey (猴), UniProt Q9NZQ7 19-238 (human entry)).
T6 construct: also called 猴PD-L1抗原
T6 sequence (Q9NZQ7 other isoform, or with tags, fused parts or gaps): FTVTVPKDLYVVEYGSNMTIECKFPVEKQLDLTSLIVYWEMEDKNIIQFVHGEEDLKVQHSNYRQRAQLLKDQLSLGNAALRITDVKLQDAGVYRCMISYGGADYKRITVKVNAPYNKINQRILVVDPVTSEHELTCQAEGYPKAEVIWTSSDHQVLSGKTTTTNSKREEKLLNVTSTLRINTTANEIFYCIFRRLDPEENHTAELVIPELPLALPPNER
In words: ELISA, monkey PD-L1 ECD coated, anti-human HRP. In general terms: In an ELISA, binding on a coated surface is turned into a signal by an enzyme label.

T1 sequence (Q07011 24-255 limits assumed): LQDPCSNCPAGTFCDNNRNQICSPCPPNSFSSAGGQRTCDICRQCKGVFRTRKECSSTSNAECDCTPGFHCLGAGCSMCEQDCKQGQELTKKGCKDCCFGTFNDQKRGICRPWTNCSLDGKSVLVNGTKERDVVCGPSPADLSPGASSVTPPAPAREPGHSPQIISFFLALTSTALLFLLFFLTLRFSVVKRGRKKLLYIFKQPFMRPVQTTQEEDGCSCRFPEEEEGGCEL

B1: 抗人PD-L1/4-1BB双特异性抗体 结构B (anti-4-1BB scFv-(G4S)2-IgG4 Fc-(G4S)3-anti-PD-L1 Fab) (bispecific antibody)
heavy: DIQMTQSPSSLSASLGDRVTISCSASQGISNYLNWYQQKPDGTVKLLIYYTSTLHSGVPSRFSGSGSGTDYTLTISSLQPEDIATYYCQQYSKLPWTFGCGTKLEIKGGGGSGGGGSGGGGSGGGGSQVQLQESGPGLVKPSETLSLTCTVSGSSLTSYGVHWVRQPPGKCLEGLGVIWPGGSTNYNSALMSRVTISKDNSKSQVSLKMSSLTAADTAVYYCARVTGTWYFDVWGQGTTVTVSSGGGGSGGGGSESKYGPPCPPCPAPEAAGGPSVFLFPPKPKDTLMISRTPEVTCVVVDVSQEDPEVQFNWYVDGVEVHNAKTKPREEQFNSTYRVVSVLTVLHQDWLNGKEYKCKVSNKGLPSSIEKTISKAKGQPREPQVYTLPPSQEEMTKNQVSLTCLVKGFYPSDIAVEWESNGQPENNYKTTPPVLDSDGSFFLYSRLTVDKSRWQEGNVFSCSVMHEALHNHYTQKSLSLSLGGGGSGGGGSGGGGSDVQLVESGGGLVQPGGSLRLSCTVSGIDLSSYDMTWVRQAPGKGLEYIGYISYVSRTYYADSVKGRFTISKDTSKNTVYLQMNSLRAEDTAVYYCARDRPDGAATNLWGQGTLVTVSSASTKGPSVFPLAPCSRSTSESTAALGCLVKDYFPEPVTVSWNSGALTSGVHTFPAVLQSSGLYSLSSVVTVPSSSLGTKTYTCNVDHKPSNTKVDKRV
light: DIQMTQSPSTLSASVGDRVTITCQSSQNVYSNNRLSWYQQKPGKAPKLLIYWTSFLASGVPSRFSGSGSGTEFTLTISSLQPDDFATYYCAGGYSGNLYTFGQGTKLEIKRTVAAPSVFIFPPSDEQLKSGTASVVCLLNNFYPREAKVQWKVDNALQSGNSQESVTEQDSKDSTYSLSSTLTLSKADYEKHKVYACEVTHQGLSSPVTKSFNRGEC
notes: Two heavy and two light chains; human IgG4 Fc; also called B结构
For the molecule B1, in test [1], the binding result is reported as “binds”. In addition, in test [2], the binding result is recorded as “binds”. In test [3], the “FACS fluorescence signal at 0.308 nM (name of read-out not given)” value is 617, the “FACS fluorescence signal at 0.617 nM (name of read-out not given)” value was 889, the “FACS fluorescence signal at 1.851 nM (name of read-out not given)” value was determined as 1450 and the “FACS fluorescence signal at 5.555 nM (name of read-out not given)” value was 4430. In addition, in test [3], the “FACS fluorescence signal at 16.666 nM (name of read-out not given)” value stood at 8220 and the “FACS fluorescence signal at 50 nM (name of read-out not given)” value turned out to be 8490. Besides, the EC50 in test [4] was 5.82 nM. The binding result in test [5] is on record as “binds”.

B2: 抗人PD-L1/4-1BB双特异性抗体 D6 (结构D, D2的突变体, linker (G4S)3) (bispecific antibody, human IgG4 S228P, kappa, F234A L235A)
heavy: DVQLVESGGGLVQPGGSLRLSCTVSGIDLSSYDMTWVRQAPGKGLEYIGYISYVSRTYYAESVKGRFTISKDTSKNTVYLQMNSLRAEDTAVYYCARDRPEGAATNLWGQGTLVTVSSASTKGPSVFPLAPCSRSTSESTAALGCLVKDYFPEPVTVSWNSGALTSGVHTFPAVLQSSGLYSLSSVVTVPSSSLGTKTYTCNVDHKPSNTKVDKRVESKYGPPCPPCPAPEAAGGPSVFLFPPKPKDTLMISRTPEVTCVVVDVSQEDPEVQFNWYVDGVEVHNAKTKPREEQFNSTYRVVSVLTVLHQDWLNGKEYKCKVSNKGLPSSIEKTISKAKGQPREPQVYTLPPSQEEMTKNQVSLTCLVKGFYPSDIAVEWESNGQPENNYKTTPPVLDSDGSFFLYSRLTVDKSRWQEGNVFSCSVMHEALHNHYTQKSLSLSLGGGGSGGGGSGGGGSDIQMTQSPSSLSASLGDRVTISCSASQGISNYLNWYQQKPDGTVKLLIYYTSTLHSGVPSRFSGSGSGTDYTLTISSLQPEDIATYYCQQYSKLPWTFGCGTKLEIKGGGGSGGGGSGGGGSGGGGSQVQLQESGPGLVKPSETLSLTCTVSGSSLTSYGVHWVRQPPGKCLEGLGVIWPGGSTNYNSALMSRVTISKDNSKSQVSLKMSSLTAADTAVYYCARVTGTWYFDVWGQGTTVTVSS
light: DIQMTQSPSTLSASVGDRVTITCQSSQNVYSNNRLSWYQQKPGKAPKLLIYWTSFLASGVPSRFSGSGSGTEFTLTISSLQPDDFATYYCAGGYSGNLYTFGQGTKLEIKRTVAAPSVFIFPPSDEQLKSGTASVVCLLNNFYPREAKVQWKVDNALQSGNSQESVTEQDSKDSTYSLSSTLTLSKADYEKHKVYACEVTHQGLSSPVTKSFNRGEC
notes: Anti-PD-L1 IgG4 with an anti-4-1BB scFv at the C-terminus of each heavy chain
With B2, the binding result in test [1] is “binds”. For the same molecule, the binding result in test [6] is on record as “binds”. The binding result in test [7] was “binds”. Besides, the binding result in test [2] is “binds”. In test [3], the “FACS fluorescence signal at 0.308 nM (name of read-out not given)” value is 516, the “FACS fluorescence signal at 0.617 nM (name of read-out not given)” value amounted to 654, the “FACS fluorescence signal at 1.851 nM (name of read-out not given)” value stood at 1190 and the “FACS fluorescence signal at 5.555 nM (name of read-out not given)” value amounted to 2950. In test [3], the “FACS fluorescence signal at 16.666 nM (name of read-out not given)” value stood at 8400 and the “FACS fluorescence signal at 50 nM (name of read-out not given)” value amounted to 8920. Moreover, the concentration for a half-maximal effect (EC50) in test [4] was 7.6 nM. For the same molecule, the binding result in test [5] is “binds”.

B3: 抗人PD-L1/4-1BB双特异性抗体 D3 (结构D, D1的突变体, linker A(EAAAK)4ALE) (bispecific antibody, human IgG4 S228P, kappa, F234A L235A)
heavy: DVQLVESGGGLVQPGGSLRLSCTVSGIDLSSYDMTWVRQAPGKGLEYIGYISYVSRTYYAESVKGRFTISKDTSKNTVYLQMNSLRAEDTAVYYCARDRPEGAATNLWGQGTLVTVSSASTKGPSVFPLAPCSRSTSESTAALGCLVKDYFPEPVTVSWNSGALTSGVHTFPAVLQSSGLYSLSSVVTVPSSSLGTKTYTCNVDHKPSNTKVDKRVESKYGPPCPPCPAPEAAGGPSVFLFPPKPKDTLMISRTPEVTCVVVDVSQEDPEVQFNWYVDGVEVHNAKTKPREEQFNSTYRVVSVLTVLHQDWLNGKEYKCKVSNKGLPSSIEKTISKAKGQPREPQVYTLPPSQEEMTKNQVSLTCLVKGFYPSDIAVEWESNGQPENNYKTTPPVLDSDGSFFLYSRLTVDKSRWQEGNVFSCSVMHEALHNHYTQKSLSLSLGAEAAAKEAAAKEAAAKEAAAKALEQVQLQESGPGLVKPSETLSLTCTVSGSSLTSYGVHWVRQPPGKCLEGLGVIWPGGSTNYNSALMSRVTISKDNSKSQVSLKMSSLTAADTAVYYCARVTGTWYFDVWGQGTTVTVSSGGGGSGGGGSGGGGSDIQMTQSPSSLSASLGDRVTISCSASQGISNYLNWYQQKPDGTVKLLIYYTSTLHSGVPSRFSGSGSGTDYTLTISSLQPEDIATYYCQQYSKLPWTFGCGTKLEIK
light: DIQMTQSPSTLSASVGDRVTITCQSSQNVYSNNRLSWYQQKPGKAPKLLIYWTSFLASGVPSRFSGSGSGTEFTLTISSLQPDDFATYYCAGGYSGNLYTFGQGTKLEIKRTVAAPSVFIFPPSDEQLKSGTASVVCLLNNFYPREAKVQWKVDNALQSGNSQESVTEQDSKDSTYSLSSTLTLSKADYEKHKVYACEVTHQGLSSPVTKSFNRGEC
notes: as for B2
Consider B3, for which, in test [3], the “FACS fluorescence signal at 0.308 nM (name of read-out not given)” value worked out at 543, the “FACS fluorescence signal at 0.617 nM (name of read-out not given)” value is 708, the “FACS fluorescence signal at 1.851 nM (name of read-out not given)” value is 1390 and the “FACS fluorescence signal at 5.555 nM (name of read-out not given)” value was determined as 3820. Besides, in test [3], the “FACS fluorescence signal at 16.666 nM (name of read-out not given)” value turned out to be 8710 and the “FACS fluorescence signal at 50 nM (name of read-out not given)” value was found to be 8870. This molecule displayed an EC50 in test [4] of 6.59 nM.
